# Measurements from patent US20250051465A1 (published 2025).
# T1: human LEPR extracellular domain expressed with a C-terminal mouse IgG2a Fc tag (hLEPR.mFc) (human)
# T1 construct: also called dimeric human LEPR
# T1 chain: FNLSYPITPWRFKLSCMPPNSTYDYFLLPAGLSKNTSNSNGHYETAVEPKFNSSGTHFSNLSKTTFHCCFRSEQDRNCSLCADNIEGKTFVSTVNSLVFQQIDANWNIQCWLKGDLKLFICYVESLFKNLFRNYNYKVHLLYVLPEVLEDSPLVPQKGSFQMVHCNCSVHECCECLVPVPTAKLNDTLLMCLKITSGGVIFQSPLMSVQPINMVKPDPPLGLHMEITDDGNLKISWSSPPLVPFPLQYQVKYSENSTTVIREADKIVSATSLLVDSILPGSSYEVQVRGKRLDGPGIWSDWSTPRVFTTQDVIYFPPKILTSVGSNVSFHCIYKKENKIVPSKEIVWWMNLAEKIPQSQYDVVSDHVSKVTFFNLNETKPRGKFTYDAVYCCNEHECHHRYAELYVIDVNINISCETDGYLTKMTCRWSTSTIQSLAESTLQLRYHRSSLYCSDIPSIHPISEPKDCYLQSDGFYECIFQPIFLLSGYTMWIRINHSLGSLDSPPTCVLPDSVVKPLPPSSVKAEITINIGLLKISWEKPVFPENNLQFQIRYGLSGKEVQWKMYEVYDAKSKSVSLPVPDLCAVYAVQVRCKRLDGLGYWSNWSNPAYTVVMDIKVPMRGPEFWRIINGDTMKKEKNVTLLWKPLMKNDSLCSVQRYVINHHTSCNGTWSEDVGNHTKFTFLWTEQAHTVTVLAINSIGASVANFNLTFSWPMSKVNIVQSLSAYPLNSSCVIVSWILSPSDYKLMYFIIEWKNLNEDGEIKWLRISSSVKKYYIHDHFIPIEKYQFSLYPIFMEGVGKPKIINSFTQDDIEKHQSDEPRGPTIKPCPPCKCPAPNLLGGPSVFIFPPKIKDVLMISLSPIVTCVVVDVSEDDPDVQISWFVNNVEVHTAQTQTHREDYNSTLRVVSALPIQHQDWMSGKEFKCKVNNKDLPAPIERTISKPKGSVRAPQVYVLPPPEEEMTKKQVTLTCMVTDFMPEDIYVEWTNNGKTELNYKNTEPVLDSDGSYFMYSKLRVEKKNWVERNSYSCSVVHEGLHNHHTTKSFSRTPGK
# B1: H4H16679P2 (antibody, human IgG4, V domains shown)
# VH: QVQLVESGGGVVQPGRSLRLSCTASGFTFSSYAMYWVRQAPGKGLEWVSVIYYDGSYKYYADSVKGRFTISRDNSKNTLYLQMDSLRAEDTAVYYCASYNWNYWYFDFWGRGTLVTVSS
# VL: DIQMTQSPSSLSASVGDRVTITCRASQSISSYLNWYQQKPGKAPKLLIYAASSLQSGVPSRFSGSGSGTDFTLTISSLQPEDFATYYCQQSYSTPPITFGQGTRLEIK
# notes: Fully human antibody with human IgG4 Fc (H4H prefix)
# B2: H4H17321P2 (antibody, human IgG4, V domains shown)
# VH: QVQLVESGGGVVQPGRSLRLSCEASGFSSSDNAMYWVRQAPGKGLEWVSVIYHDGSYKYYEDSVKGRFTIARDNSKNTLYLQMNSLRAEDTAVYYCARYNWNHWYFDVWGRGTLVTVSS
# VL: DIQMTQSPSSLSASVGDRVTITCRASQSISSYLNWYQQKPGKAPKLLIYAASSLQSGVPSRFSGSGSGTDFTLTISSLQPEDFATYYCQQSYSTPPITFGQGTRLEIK
# notes: as for B1
# B3: H4H16650P2 (antibody, human IgG4, V domains shown)
# VH: QVQLVESGGGVVQPGKSLRLSCVASGFTFSSDAMYWVRQAPGKGLEWVAVIYYDGNYQYYEDSVKGRFTISRDNSQNTLDLQMNSLRVDDTAVYFCARLNWDYWYLDLWGRGTLVTVSS
# VL: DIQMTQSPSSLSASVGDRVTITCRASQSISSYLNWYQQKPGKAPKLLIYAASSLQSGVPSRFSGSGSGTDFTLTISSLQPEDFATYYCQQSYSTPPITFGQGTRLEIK
# notes: as for B1
# B4: H4H18438P2 (antibody, human IgG4, V domains shown)
# VH: QVQLVESGGGVVQPGRSLRLSCAASGFSFNTYGMHWVRQAPGKGLEWVTIIWYDGSIKYYADSVKGRFTISRDNSKNTLYLQMNSLRAEDTAVYYCARGGYSGYLYFDYWGQGTLVTVSS
# VL: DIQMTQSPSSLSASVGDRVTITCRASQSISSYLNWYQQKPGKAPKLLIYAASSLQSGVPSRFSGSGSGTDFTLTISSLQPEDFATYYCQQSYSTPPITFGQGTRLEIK
# notes: as for B1
# B5: H4H18445P2 (antibody, human IgG4, V domains shown)
# VH: QVQLQESGPGLVKPSQTLSLTCTVSGGSISSGGDYWSWIRQLPGKGLEWIGYIYYSGSAYYNPSLKSRGTISIDTSKNQFSLKLTSVTAADTAVYFCVKLRFLEWFLGGWFGPWGQGTLVTVSS
# VL: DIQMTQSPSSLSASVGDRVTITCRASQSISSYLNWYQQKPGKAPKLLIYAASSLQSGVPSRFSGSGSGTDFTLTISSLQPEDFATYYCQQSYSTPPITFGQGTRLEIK
# notes: as for B1
# B6: H4H18446P2 (antibody, human IgG4, V domains shown)
# VH: EVQLVESGGGLVQPGGSLRLSCAASGFTFSNYGMTWVRQAPGKGLEWVSAITGGGGSTYYSNSVKGRFTISRDNSKNTVYLRMNSVRAEDTAVYYCAKYKWNFVDDWGQGTTVTVSS
# VL: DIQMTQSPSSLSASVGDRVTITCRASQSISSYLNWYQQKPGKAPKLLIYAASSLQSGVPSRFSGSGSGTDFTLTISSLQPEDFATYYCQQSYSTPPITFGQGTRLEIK
# notes: as for B1
# B7: H4H18449P2 (antibody, human IgG4, V domains shown)
# VH: EVQLVESGGGLVQPGGSLRLSCVASGFTFNKYDMHWVRQTTGKGLEWVSGIDTDGDTYYPGSVKGRFTISRENAENSLYLQMNGLRVGDTAVYYCARWPWSGFYGAFDIWGQGTMVTVSS
# VL: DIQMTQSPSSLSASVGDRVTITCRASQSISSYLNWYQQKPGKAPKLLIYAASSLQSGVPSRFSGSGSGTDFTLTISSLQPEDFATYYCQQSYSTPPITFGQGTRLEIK
# notes: as for B1
# B8: H4H18417P2 (antibody, human IgG4, V domains shown)
# VH: QVQLVESGGGVVQPGRSLRLSCAASGFTFSTYGMHWVRQAPGKGLEWVSVISYDESNKYYADSVKGRFTISRDNSKNALYLQMNSLRNEDTAVYYCARDRPFGLVTGWFDPWGQGTLVTVSS
# VL: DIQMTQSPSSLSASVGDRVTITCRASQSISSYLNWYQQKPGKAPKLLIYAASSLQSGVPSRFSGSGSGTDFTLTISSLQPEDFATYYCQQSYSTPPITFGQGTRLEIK
# notes: as for B1
# Molecular target: T2, human LEPR extracellular domain expressed with a C-terminal myc-myc-hexahistidine tag (hLEPR.mmh) (human, UniProt P48357 22-839)
# T2 construct: also called human LEPR-MMH; monomeric human LEPR
# Test: SPR, captured mAb, 37C
# Procedure: (§1) Equilibrium dissociation constants (KD values) for LEPR binding to purified anti-LEPR monoclonal antibodies were determined using a real-time surface plasmon resonance biosensor using a Biacore 4000 instrument. All binding studies were performed in 10 mM HEPES, 150 mM NaCl, 3 mM EDTA, and 0.05% v/v Surfactant Tween-20, pH 7.4 (HBS-ET) running buffer at 25° C. and 37° C. The Biacore sensor surface was first derivatized by amine coupling with a monoclonal mouse anti-human Fc antibody (GE, #BR-1008-39) to capture anti-LEPR monoclonal antibodies. […] Kinetic association (kₐ) and dissociation (kd) rate constants were determined by fitting the real-time binding sensorgrams to a 1:1 binding model with mass transport limitation using Scrubber 2.0c curve-fitting software. Binding dissociation equilibrium constants (KD) and dissociative half-lives (t½) were calculated from the kinetic rate constants as: […]
Binder,100 nM hLEPR-MMH Bound (RU),Kd [nM],koff [s⁻¹],kon [M⁻¹ s⁻¹],t½ [min]
B1,61,21.9,0.000842,38400,14
B2,61,14.8,0.000438,29500,26
B3,77,19.8,0.000958,48500,12
B4,32,170,0.00576,33800,2
B5,38,326,0.0168,51300,0.7
B6,21,121,0.00256,21200,4.5
B7,73,20.7,0.000815,39400,14
B8,22,233,0.018,77000,0.6

# Molecular target: T3, Macaca fascicularis LEPR extracellular domain expressed with a C-terminal myc-myc-hexahistidine tag … (Macaca fascicularis, UniProt Q9MYL0 22-837 (rhesus entry))
# T3 construct: also called mfLEP.MMH
# Test: SPR, captured mAb, 37C
# Procedure: as §1
Binder,100 nM mfLEPR.MMH Bound (RU),Kd [nM],koff [s⁻¹],kon [M⁻¹ s⁻¹],t½ [min]
B1,104,10.4,0.000677,64900,17
B2,143,5.18,0.000257,49700,45
B3,134,5.76,0.0007,122000,16
B5,48,264,0.019,71700,0.6
B6,30,140,0.00354,25300,3.3
B8,28,217,0.0263,122000,0.4

# Molecular target: T1, human LEPR extracellular domain …
# Test: SPR, captured mAb, 37C
# Procedure: as §1
Binder,100 nM hLEPR-mFc Bound (RU),Kd [nM],koff [s⁻¹],kon [M⁻¹ s⁻¹],t½ [min]
B1,116,2.56,0.00031,121000,37
B2,110,3.15,0.000174,55300,66
B3,145,1.79,0.00028,157000,41
B4,82,8.53,0.000598,70200,19
B5,104,3.89,0.000608,156000,19
B6,34,12.8,0.000548,42700,21
B7,148,1.26,0.000168,133000,69
B8,111,5.64,0.00105,185000,11

# Molecular target: T4, human LEPR CRH1 (D1)-MMH (human, UniProt P48357 22-229, limits assumed)
# T4 construct: domain: CRH1 (D1); Transiently expressed, captured from supernatant on anti-myc beads
# Test: Luminex, myc-captured LEPR domain
# Procedure: (§2) Aliquots of microspheres with immobilized anti-myc monoclonal antibodies, prepared as described above, were added individually to 1 mL of the each of these protein supernatants. The microspheres were gently mixed, incubated for two hours at 25° C., washed twice with 1 mL of DBPS, centrifuged to remove the supernatant and finally resuspended in 1 mL of DPBS buffer. Forty-eight μL of anti-myc IgG coupled microspheres from individual reactions with full length human LEPR and with each of the human LEPR domain proteins were withdrawn and mixed together in 3.6 mL of PBS+20 mg/mL BSA+0.05% sodium azide (blocking buffer).
# (§3) From this mixed pool, 75 μL of microspheres were plated per well on a 96 well filter plate (Millipore, Cat. No: MSBVN1250) and mixed with 25 μL of individual anti-human LEPR monoclonal antibodies (0.5 or 5 µg/mL), incubated for two hours at 25° C. and then washed twice with 200 μL of DPBS with 0.05% Tween 20 (washing buffer). […] After 30 minutes, the samples were washed twice with 200 μL of washing buffer and resuspended in 150 μL of wash buffer. The Median Fluorescence intensity (MFI) of the microspheres was measured in a Luminex Analyzer.
row,Binder,MFI [MFI]
1,B1,12
2,B2,9
3,B3,8
4,B4,13
5,B5,12
6,B6,17
7,B7,20
8,B8,10

# Molecular target: T5, human LEPR CRH1 (D1,D2)-MMH (human, UniProt P48357 22-339, limits assumed)
# T5 construct: domain: CRH1 (D1,D2); Transiently expressed, captured from supernatant on anti-myc beads
# Test: Luminex, myc-captured LEPR domain
# Procedure: as §2, §3
row,Binder,MFI [MFI]
1,B1,4390
2,B2,2650
3,B3,4720
4,B4,18900
5,B5,30
6,B6,682
7,B7,2930
8,B8,16000

# Molecular target: T6, human LEPR CRH1 (D1,D2,D3)-MMH (human, UniProt P48357 22-427, limits assumed)
# T6 construct: domain: CRH1-Ig (D1,D2,D3); Transiently expressed, captured from supernatant on anti-myc beads; also called CRH1-Ig (D1, D2, D3)
# Test: Luminex, myc-captured LEPR domain
# Procedure: as §2, §3
row,Binder,MFI [MFI]
1,B1,2800
2,B2,1750
3,B3,2560
4,B4,6570
5,B5,22
6,B7,2060
7,B8,3330

# Molecular target: T7, human LEPR CRH2-MMH (human, UniProt P48357 428-634, limits assumed)
# T7 construct: domain: CRH2; Transiently expressed, captured from supernatant on anti-myc beads
# Test: Luminex, myc-captured LEPR domain
# Procedure: as §2, §3
# T7 sequence (P48357 other isoform, or with tags, fused parts or gaps limits assumed): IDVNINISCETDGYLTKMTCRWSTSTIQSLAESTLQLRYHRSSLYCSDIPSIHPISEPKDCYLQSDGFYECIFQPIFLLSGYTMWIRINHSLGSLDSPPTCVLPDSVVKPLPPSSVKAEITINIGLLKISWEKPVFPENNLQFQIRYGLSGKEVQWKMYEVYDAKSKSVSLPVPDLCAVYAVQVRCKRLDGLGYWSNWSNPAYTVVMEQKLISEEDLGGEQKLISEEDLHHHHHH
row,Binder,MFI [MFI]
1,B1,33
2,B2,116
3,B3,16
4,B4,165
5,B5,17
6,B6,65
7,B7,15
8,B8,39

# Molecular target: T8, human LEPR FNIII-MMH (human, UniProt P48357 636-839, limits assumed)
# T8 construct: domain: FNIII; Transiently expressed, captured from supernatant on anti-myc beads
# Test: Luminex, myc-captured LEPR domain
# Procedure: as §2, §3
# T8 sequence (P48357 other isoform, or with tags, fused parts or gaps limits assumed): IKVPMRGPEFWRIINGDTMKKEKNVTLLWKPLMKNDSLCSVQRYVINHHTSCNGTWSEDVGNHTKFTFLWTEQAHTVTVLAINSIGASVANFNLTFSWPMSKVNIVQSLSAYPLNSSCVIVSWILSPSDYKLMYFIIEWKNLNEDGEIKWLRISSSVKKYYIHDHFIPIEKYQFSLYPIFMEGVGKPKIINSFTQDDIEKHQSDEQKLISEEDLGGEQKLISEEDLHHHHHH
row,Binder,MFI [MFI]
1,B1,10
2,B2,40
3,B3,6
4,B4,25
5,B5,230
6,B6,32
7,B7,13
8,B8,14
